Assay results published in patent US20020164595, “Sequence specific DNA binding by p53” (published 2002).

Columns and labels:
p53 wild-type [1] = molecular target: T1, p53 wild-type (Homo sapiens, UniProt P04637 P04637:1-393); test: pulldown; conditions: chain copies: 4
p53 wild-type [2] = molecular target: T1, p53 wild-type; test: pulldown; monomer alone, not shown; conditions: chain copies: 4
p53 wild-type [3] = molecular target: T1, p53 wild-type; test: pulldown; conditions: chain copies: 4; label: 32P
From the text: FIG. 11A. […] For each sample, the control lane (C) contained 2% of the total DNA used in the binding reaction, and was composed of two fragments: 2.9 kb vector DNA fragment, and a fragment of 40 to 80 bp containing no insert (lane 9; XhoI plus Pst1 digest of pBluescript II SK+), the 10 bp consensus monomer sequence 5′-[…]-3′ (lane 5), or multimers of this sequence arranged as indicated (lanes 1 to 4, 6, to 8). Bound DNA from the IP is shown in the B lanes.
To determine if the 10 bp consensus monomer could bind p53, a synthetic oligonucleotide (5′-[…]-3′) containing the consensus sequence was studied. Oligonucleotide duplexes were tested either directly or after cloning into plasmid vectors. […] Two variants of the consensus motif were also tested for binding. In the first, the two critical G:C bp's at position 4 and 6 of the monomer were substituted with A:T bp's (FIG. 10, synthetic oligonucleotides 1,2).

T1 sequence (P04637 whole entry, one chain of several): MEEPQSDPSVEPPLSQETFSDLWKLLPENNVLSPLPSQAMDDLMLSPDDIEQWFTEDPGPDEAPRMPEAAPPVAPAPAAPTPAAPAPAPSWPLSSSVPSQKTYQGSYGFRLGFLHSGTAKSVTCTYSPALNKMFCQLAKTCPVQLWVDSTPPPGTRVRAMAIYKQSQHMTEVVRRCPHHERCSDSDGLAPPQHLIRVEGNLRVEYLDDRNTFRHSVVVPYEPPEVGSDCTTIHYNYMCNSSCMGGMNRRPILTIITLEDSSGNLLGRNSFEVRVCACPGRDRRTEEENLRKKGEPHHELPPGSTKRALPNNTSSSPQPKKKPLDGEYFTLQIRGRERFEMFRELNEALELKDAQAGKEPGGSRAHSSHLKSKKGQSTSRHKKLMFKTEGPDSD

| Binder | binding result (p53 wild-type [1]) | binding result (p53 wild-type [3]) | also measured |
| --- | --- | --- | --- |
| synthetic oligo 2 (A:T-substituted dimer) (dsDNA) DNA 1: AGGAATTCCTAGGAATTCCT DNA 2: AGGAATTCCTAGGAATTCCT | no binding |  |  |
| synthetic oligo 5 (direct half-site repeats) (dsDNA) DNA 1: AGGCAAGGCAAGGCAAGGCA DNA 2: TGCCTTGCCTTGCCTTGCCT | no binding |  |  |
| consensus monomer (dsDNA) DNA 1: AGGCATGTCT DNA 2: AGACATGCCT |  |  | binding result (p53 wild-type [2]): no binding |
| synthetic oligo 1 (A:T-substituted monomer) (dsDNA) DNA 1: AGGAATTCCT DNA 2: AGGAATTCCT | no binding |  |  |
| synthetic oligo 6 (cloned consensus dimer) (dsDNA) DNA 1: TGCAGGAATTCGATAGGCATGTCTAGGCATGTCTATCAAGCTTATCGAT DNA 2: ATCGATAAGCTTGATAGACATGCCTAGACATGCCTATCGAATTCCTGCA |  | binds |  |
| synthetic oligo 7 (cloned consensus dimer, inverted) (dsDNA) DNA 1: TGCAGGAATTCGATAGGCATGTCTAGACATGCCTATCAAGCTTATCGAT DNA 2: ATCGATAAGCTTGATAGGCATGTCTAGACATGCCTATCGAATTCCTGCA |  | binds |  |
| synthetic oligo 8 (cloned consensus dimer, inverted) (dsDNA) DNA 1: TGCAGGAATTCGATAGACATGCCTAGGCATGTCTATCAAGCTTATCGAT DNA 2: ATCGATAAGCTTGATAGACATGCCTAGGCATGTCTATCGAATTCCTGCA |  | binds |  |
| fragment A subfragment 5 (dsDNA) DNA 1: AGTGAAAGCAGGTAGATTGCCTTGCCTGGACTTGCCTGGCCTTGCCTTTTCTTTC DNA 2: GAAAGAAAAGGCAAGGCCAGGCAAGTCCAGGCAAGGCAATCTACCTGCTTTCACT |  |  | binding result (p53 wild-type [1]; label: 32P): binds |
| synthetic oligo 9 (cloned monomer) (dsDNA) DNA 1: TGCAGGAATTCGATAGGCATGTCTATCAAGCTTATCGAT DNA 2: ATCGATAAGCTTGATAGACATGCCTATCGAATTCCTGCA |  | no binding |  |
